The text below walks through data of patent US20150017665A1, “Peptides and Methods for Detecting MPO-ANCA” (The University of North Carolina at Chapel Hill, priority 2012, published 2015).

One test relates to mice. The following applies: Ooi et al. 2012; cited from earlier work.
For a further test, the target named is T1, MPO peptide aa447-459 (Homo sapiens, UniProt P05164).
T1 construct: made in house; host or cells: chemical synthesis (a peptide core is named only for the ELISA peptides)
Kind of test: Serum proteins binding to immobilized MPO peptide aa447-459. The note with it: identified by mass spectrometry. An excerpt:
(§1) Serum proteins that bound immobilized MPO peptide aa447-459 were eluted and sequenced for identification. […] Sequenced on a 4800 MALDI TOF-TOF, the protein was identified as ceruloplasmin (CP), and confirmed by western blot analysis probed with a rabbit anti-human anti-CP polyclonal antibody (Abeam). Native CP was purchased (Enzo Life Science) and proteolytically digested in vitro by plasmin (Haemtech).
(§2) To isolate the putative serum factor, immobilized MPO aa447-459 peptide was used as bait to fish-out host proteins with binding capacity. […] However, the CP bound to aa447-459 was primarily a 50 kD protein on sodium dodecyl sulfate polyacrylamide gel electrophoresis (SDS-PAGE), while full length CP is 151 kD (FIG. 6D). An anti-ceruloplasmin western blot confirmed the fragment to be a portion of CP (FIG. 6E). To test the role of proteolytic cleavage in generating the blocking factor, a plasmin-generated fragment of CP (Kingston et al., Proc. Natl. Acad. Sci. USA 74:5377 (1977)) was tested for epitope masking capability (FIG. 6F).

The test system of test [1] is MPO-ANCA IgG (polyclonal). Kind of test: Effect of CP on binding of polyclonal MPO-ANCA Ig to native MPO (ELISA). Details: species or system human. The following applies: MPO-ANCA IgG from four patients.
Excerpt: as §2
(In general: In an ELISA, binding on a coated surface is turned into a signal by an enzyme label.)

For test [2], the system named is anti-MPO^447-459 autoantibody. Put plainly: Epitope masking ELISA with ceruloplasmin and its fragments. The format is binding, human. The following applies: ELISA.
Excerpt: as §1, §2

On to “PRWNGEKLYQEARKIVGAMV (listed as Homo sapiens) [murine MPO peptide aa409-428]”, for which the induction of glomerulonephritis entry with mice is “induces glomerulonephritis in mice”.

B1: full length CP: full length ceruloplasmin, 151 kD, purchased (Enzo Life Science) (protein)
chain: KEKHYYIGIIETTWDYASDHGEKKLISVDTEHSNIYLQNGPDRIGRLYKKALYLQYTDETFRTTIEKPVWLGFLGPIIKAETGDKVYVHLKNLASRPYTFHSHGITYYKEHEGAIYPDNTTDFQRADDKVYPGEQYTYMLLATEEQSPGEGDGNCVTRIYHSHIDAPKDIASGLIGPLIICKKDSLDKEKEKHIDREFVVMFSVVDENFSWYLEDNIKTYCSEPEKVDKDNEDFQESNRMYSVNGYTFGSLPGLSMCAEDRVKWYLFGMGNEVDVHAAFFHGQALTNKNYRIDTINLFPATLFDAYMVAQNPGEWMLSCQNLNHLKAGLQAFFQVQECNKSSSKDNIRGKHVRHYYIAAEEIIWNYAPSGIDIFTKENLTAPGSDSAVFFEQGTTRIGGSYKKLVYREYTDASFTNRKERGPEEEHLGILGPVIWAEVGDTIRVTFHNKGAYPLSIEPIGVRFNKNNEGTYYSPNYNPQSRSVPPSASHVAPTETFTYEWTVPKEVGPTNADPVCLAKMYYSAVEPTKDIFTGLIGPMKICKKGSLHANGRQKDVDKEFYLFPTVFDENESLLLEDNIRMFTTAPDQVDKEDEDFQESNKMHSMNGFMYGNQPGLTMCKGDSVVWYLFSAGNEADVHGIYFSGNTYLWRGERRDTANLFPQTSLTLHMWPDTEGTFNVECLTTDHYTGGMKQKYTVNQCRRQSEDSTFYLGERTYYIAAVEVEWDYSPQREWEKELHHLQEQNVSNAFLDKGEFYIGSKYKKVVYRQYTDSTFRVPVERKAEEEHLGILGPQLHADVGDKVKIIFKNMATRPYSIHAHGVQTESSTVTPTLPGETLTYVWKIPERSGAGTEDSACIPWAYYSTVDQVKDLYSGLIGPLIVCRRPYLKVFNPRRKLEFALLFLVFDENESWYLDDNIKTYSDHPEKVNKDDEEFIESNKMHAINGRMFGNLQGLTMHVGDEVNWYLMGMGNEIDLHTVHFHGHSFQYKHRGVYSSDVFDIFPGTYQTLEMFPRTPGIWLLHCHVTDHIHAGMETTYTVLQNEDTKSG
As for B1, the “binding to immobilized MPO aa447-459 peptide” value with MPO peptide aa447-459 was “identified by mass spectrometry as a binding partner”. For the same molecule, the “effect on binding of polyclonal MPO-ANCA Ig to native MPO” value in test [1] was “unaffected”. The epitope masking capability result is reported as “did not” in test [2] and “did not mask the epitope” in test [2] (listed as full-length CP).
